We go through five proteins from publication PMC3836677 (The Biochemical journal, 2012).

Broadly, the stoichiometry N is the number of molecules, sites or subunits per partner or assembly. One may read the Km as the concentration of substrate that gives half-maximal velocity. The kcat is the maximal rate divided by the concentration of active sites. By kcat/Km is commonly meant the second-order rate constant that governs catalysis at low substrate concentration.

Series [1] deals with the molecule itself. In words: SEC. On the technique in general: In gel filtration, larger molecules generally elute earlier.
Substrate in series [2]: CCCCCCCCCCCCCCCCCC(=O)SCCNC(=O)CCNC(=O)[C@H](O)C(C)(C)COP(=O)(O)OP(=O)(O)OC[C@H]1O[C@@H](n2cnc3c(N)ncnc32)[C@H](O)[C@@H]1OP(=O)(O)O
In words: purified protein. The note with it: 50 mM HEPES-K pH 8.0, 2 mM EDTA, 0.3 mM DTNB, 37 °C.

Substrate in series [3]: CC(C)(COP(=O)(O)OP(=O)(O)OC[C@H]1O[C@@H](n2cnc3c(N)ncnc32)[C@H](O)[C@@H]1OP(=O)(O)O)[C@@H](O)C(=O)NCCC(=O)NCCSC(=O)CCC(=O)O
Put plainly: purified protein. The note with it: 50 mM HEPES-K pH 8.0, 2 mM EDTA, 0.3 mM DTNB, 37 °C.

Substrate in series [4]: CC(C(=O)O)C(=O)SCCNC(=O)CCNC(=O)[C@H](O)C(C)(C)COP(=O)(O)OP(=O)(O)OC[C@H]1O[C@@H](n2cnc3c(N)ncnc32)[C@H](O)[C@@H]1OP(=O)(O)O
In words: purified protein. To be noted: 50 mM HEPES-K pH 8.0, 2 mM EDTA, 0.3 mM DTNB, 37 °C.

Substrate in series [5]: CCCCCCCC(=O)SCCNC(=O)CCNC(=O)[C@H](O)C(C)(C)COP(=O)(O)OP(=O)(O)OC[C@H]1O[C@@H](n2cnc3c(N)ncnc32)[C@H](O)[C@@H]1OP(=O)(O)O
In words: purified protein. To be noted: 50 mM HEPES-K pH 8.0, 2 mM EDTA, 0.3 mM DTNB, 37 °C.

Substrate in series [6]: CCCCCCCCCCCCCCCC(=O)SCCNC(=O)CCNC(=O)[C@H](O)C(C)(C)COP(=O)(O)OP(=O)(O)OC[C@H]1O[C@@H](n2cnc3c(N)ncnc32)[C@H](O)[C@@H]1OP(=O)(O)O
In words: purified protein. To be noted: 50 mM HEPES-K pH 8.0, 2 mM EDTA, 0.3 mM DTNB, 37 °C.

Substrate in series [7]: CC(O)CC(=O)SCCNC(=O)CCNC(=O)[C@H](O)C(C)(C)COP(=O)(O)OP(=O)(O)OC[C@H]1O[C@@H](n2cnc3c(N)ncnc32)[C@H](O)[C@@H]1OP(=O)(O)O
Put plainly: purified protein. To be noted: 50 mM HEPES-K pH 8.0, 2 mM EDTA, 0.3 mM DTNB, 37 °C.

Substrate in series [8]: CC(C)(COP(=O)(O)OP(=O)(O)OC[C@H]1O[C@@H](n2cnc3c(N)ncnc32)[C@H](O)[C@@H]1OP(=O)(O)O)[C@@H](O)C(=O)NCCC(=O)NCCSC(=O)Cc1ccccc1
Put plainly: purified protein. The note with it: 50 mM HEPES-K pH 8.0, 2 mM EDTA, 0.3 mM DTNB, 37 °C.

Substrate in series [9]: CCCCCC(=O)SCCNC(=O)CCNC(=O)[C@H](O)C(C)(C)COP(=O)(O)OP(=O)(O)OC[C@H]1O[C@@H](n2cnc3c(N)ncnc32)[C@H](O)[C@@H]1OP(=O)(O)O
In words: purified protein. To be noted: 50 mM HEPES-K pH 8.0, 2 mM EDTA, 0.3 mM DTNB, 37 °C.

Substrate in series [10]: CC(C)(COP(=O)(O)OP(=O)(O)OC[C@H]1O[C@@H](n2cnc3c(N)ncnc32)[C@H](O)[C@@H]1OP(=O)(O)O)[C@@H](O)C(=O)NCCC(=O)NCCSC(=O)C[C@@](C)(O)CC(=O)O
Put plainly: purified protein. The note with it: 50 mM HEPES-K pH 8.0, 2 mM EDTA, 0.3 mM DTNB, 37 °C.

Substrate in series [11]: CC(=O)SCCNC(=O)CCNC(=O)[C@H](O)C(C)(C)COP(=O)(O)OP(=O)(O)OC[C@H]1O[C@@H](n2cnc3c(N)ncnc32)[C@H](O)[C@@H]1OP(=O)(O)O
In words: purified protein. To be noted: 50 mM HEPES-K pH 8.0, 2 mM EDTA, 0.3 mM DTNB, 37 °C.

Substrate in series [12]: CC(C)(COP(=O)(O)OP(=O)(O)OC[C@H]1O[C@@H](n2cnc3c(N)ncnc32)[C@H](O)[C@@H]1OP(=O)(O)O)[C@@H](O)C(=O)NCCC(=O)NCCSC(=O)CCCC(=O)O
In words: purified protein. The note with it: 50 mM HEPES-K pH 8.0, 2 mM EDTA, 0.3 mM DTNB, 37 °C.

B1: PA5202 (enzyme, Pseudomonas aeruginosa, UniProt Q9HTY7 1-129, looked up)
chain: MSEMPAREQMISAYSELVGLDPVSLGDGVAEVRLPMAAHLRNRGGVMHGGALFSLMDVTMGLACSSSHGFDRQSVTLECKINYIRAVADGEVRCVARVLHAGRRSLVVEAEVRQGDKLVAKGQGTFAQL
Turning to B1, the “stoichiometry N” value in [1] turned out to be 4. Further, the Km is 5 ± 1 µM in [2]; 100 ± 20 µM in series [3]; 400 ± 40 µM in [4]; 400 ± 60 µM in [5]; 20 ± 10 µM in series [6]; 500 ± 50 µM in series [7]. In addition, the Km in series [8] is 1100 ± 10 µM; in series [9] it was 200 ± 20 µM; in series [10], 100 ± 10 µM; in [11], 500 ± 100 µM; in [12] it was 700 ± 100 µM. The kcat in series [2] worked out at 0.04 ± 0.003 s⁻¹; in series [3] it was 0.8 ± 0.03 s⁻¹; in [4], 0.3 ± 0.01 s⁻¹; in [5], 2.4 ± 0.2 s⁻¹; in series [6], 0.3 ± 0.03 s⁻¹; in series [7], 2 ± 0.1 s⁻¹. For the same protein, the results for the kcat in series [8], in series [11] and in series [12] were 0.1 ± 0.01 s⁻¹, 0.2 ± 0.03 s⁻¹ and 26.8 ± 0.9 s⁻¹, respectively. The kcat/Km in series [2] came to 8000 M⁻¹ s⁻¹; in series [3] it was 7000 M⁻¹ s⁻¹; in [4] it was 800 M⁻¹ s⁻¹; in series [5] it was 7000 M⁻¹ s⁻¹; in [6] it was 13000 M⁻¹ s⁻¹; in series [7] it was 4000 M⁻¹ s⁻¹. Further, the figures for the kcat/Km in series [8], in series [11] and in series [12] were 100 M⁻¹ s⁻¹, 400 M⁻¹ s⁻¹ and 40000 M⁻¹ s⁻¹, respectively.

B2: PA2801 (enzyme, Pseudomonas aeruginosa)
chain: MADRQLLHTAHIPVRWGDMDSYGHVNNTLYFQYLEEARVAWFETLGIDLEGAAEGPVVLQSLHTYLKPVVHPATVVVELYAGRLGTSSLVLEHRLHTLEDPQGTYGEGHCKLVWVRHAENRSTPVPDSIRAAIA
In the case of B2, the “stoichiometry N” value in series [1] came to 4.

B3: PA1835 (natural protein, Pseudomonas aeruginosa)
chain: MSQMMQMYQQVGPAQFSAMIGQFAPYFASIAPQFVELRPGYAEVTFPKRREVLNHIGTVHAIALCNAAELAAGTMTDASIPAGHRWIPRGMTVEYLAKATGDVRAVADGSQIDWQATGNLVVPVVAYVDDKPVFRAEITMYVSQA
For the protein B3, the “stoichiometry N” value in [1] is 2.

B4: PA5026 (natural protein, Pseudomonas aeruginosa)
chain: MPLPTELARHLTEEKIAFVQRSGLRAEVLEPGYVRLRMPGAGNENHIGSMYAGALFTLAELPGGALFLTSFDSARFYPIVKEMTLRFRRPAKGDIRVEARLDAERIRQLETEAGERGKAEYSLELQLTDEQGEVVAESAALYQLRSHARP
As for B4, the “stoichiometry N” value in series [1] was determined as 2.

B5: PA5185 (enzyme, Pseudomonas aeruginosa)
chain: MATAPRPLREQYLHFQPISTRWHDNDIYGHVNNVTYYAFFDTAVNTYLIERGGLDIQGGEVIGLVVSSSCDYFAPVAFPQRIEMGLRVARLGNSSVQYELALFLEGQREACAAGRFVHVFVERRSSRPVAIPQELRDALAALQSSAQ
On to B5, for which, in series [1], the “stoichiometry N” value is 4.
